Experimental data taken from US11905559B2, “Materials and methods for controlling gene expression” (priority 2016, dated 2024).
Positions count from the first letter of the chain named. Numbers in names are those of the source. Where “and” joins values, the source holds several entries; their conditions need not be identical. Equal values may be shown once.

What was measured:
[1] = Constant-force (CF) single-molecule optical tweezers folding assay of guanine-aptamer RNAs in guanine buffer; assay type: physicochemical; settings: for ΔG (0): zero force
Text: The aptamer folding was monitored in real time using a constant-force (CF) assay. Equilibrium sampling techniques provide unprecedented insights into the rare events in the course of folding that are otherwise difficult to identify. The technique also allows for determination of the kinetic rates that has not been fully investigated in the guanine riboswitch. The relative dynamics of the helices have been investigated in ensemble and smFRET experiments, which indicated a non-dynamic P1-P3, upon which the P2 helix switches conformations. As shown in FIG. 6A (left panel), the RNA oscillated between the linear and the hairpin conformations (E↔D↔C) at 13 pN. The distances ΔXED=7.1±0.4 nm and ΔXDC=7.9±0.4 nm correspond to the folding of a 17±1 nt (P2) and 19±1 nt (P3) respectively (FIGS. 7A-B). The conversion of distances to nucleotides in CF assay are described in Table 2.
A miniaturized dual beam optical tweezers instrument was constructed with a sampling rate of 0.4, 4 and 40 kHz. Typically, in the tweezers set up (FIGS. 2A-E), a single-molecule of RNA is held between two beads via ˜550 nucleotide (nt) long Handles A and B. Preparation of Handles and the RNA is described in the section above. The streptavidin coated polystyrene bead (diameter 1.5-1.9 μm, Spherotech Inc.) is fixed on a micropipette via suction, and the anti-digoxigenin coated bead (diameter 4.0-4.9 μm, Spherotech Inc.) is held in the dual counter-propagating laser beam. The trap stiffness, K is measured at 0.04-0.06 pN/nm from the power spectrum analysis of the Brownian motion of the trapped bead. For power spectrum analysis, a polystyrene bead with diameter ˜4.6 μm is trapped in the counter-propagating laser beam in aqueous buffer with a fixed trap position. […] The average from 10 beads yielded K˜0.049±0.0008 pN/nm, and the stoke's drag coefficient, y=0.0364±0.0002 pN. s/μm. […] However, the autocorrelation time (τ0) defined as the τ1=1/2πfc as described by Zoldak et al., “Ultrafast folding kinetics and cooperativity of villin headpiece in single-molecule force spectroscopy”. Proc. Natl. Acad. Sci. U.S.A 110, 18156 (2013) sets the detection limit for the observable kinetics, which is different from the sampling frequencies. […] The ACF for the time series of force signal, Fi, with sampling rate δ and N data points, is calculated as,
In a constant-force (CF) experiment, the RNA is held at a preset force through feedback control. The preset force typically fluctuated around the mean with a standard deviation ±0.15 pN. In this mode, data is recorded from 4-40 kHz to capture the fast intermediates. The plots are shown as extension vs. time (as in FIG. 6A). In force-jump (FJ) assay, the force is suddenly jumped from one force to another, and then held constant thereafter, as shown in FIGS. 23A-B.
All FR, CF and FJ experiments were carried out at an ambient temperature, 25±0.5° C. The buffer in the microfluidics contained 10 mM Tris-HCl, pH 7.5 at 25° C., 250 mM NaCl, 3 mM MgCl2, and purine concentrations as indicated in wild-type aptamer. Unless stated otherwise, Mg^2+ concentration in the buffer was maintained at 3 mM in all experiments. The buffer in mutant m1 contained 5 mm Mg^2+ and 1 μM G, and in m3 contained 5 mM Mg^2+ and 200 nM Guanine. For the remaining m2, m4, m5 and m6 mutants, the buffer in single-molecule experiments was supplemented only with 3 mM Mg^2+ and 200 nM Guanine.
In the force-ramp experiment, the trap was moved away (pull cycle) from the micropipette at 200 nm/sec, which corresponded to a loading rate of 7-8 pN/sec. This movement of the trap exerted a tension at the ends of the tethered RNA aptamer. […] In the constant-force (CF) experiment, the RNA was held at a preset force (FIG. 6A). The loading rate in CF experiments was zero. The preset force typically fluctuated around the mean with standard deviation ±0.15 pN. […]

[2] = Isothermal titration calorimetry (ITC); assay type: binding; settings: for Kd: 50 mM K^+ Hepes pH 7.5, 100 mM KCl, 10 mM MgCl2, read-out: KD for guanine
Description: For ITC experiments, wild-type G-aptamer and the mutant RNAs were synthesized by in vitro transcription of the DNA template and purified by denaturing polyacrylamide gel electrophoresis (PAGE). The ligand guanine was introduced in the syringe, while the RNA into the sample cell at a final concentration of 10 μM and 1 μM respectively. The concentrations were determined by absorbance reading using ε260=12010 M^−1 cm^−1 (guanine) and ε260=711400 M^−1 cm^−1 (RNA). The buffer in the syringe and the sample cell contained 50 mM K^+ Hepes (pH 7.5), 100 mM KCl, and 10 mM MgCl2. Binding reactions were performed at 30° C. on a MicroCal iTC200 instrument (Malvern) with a reference power of 6 μcal/sec, an initial delay of 60 secs and a stirring speed of 750 rpm. Guanine was titrated into the sample cell in 16 injections (2.5 μl each). The injection rate was 0.5 μl/sec and the spacing between the injections was maintained at 120 sec. Data was baseline corrected and fitted to a single-site binding model to obtain association constant (KA), stoichiometry (n) and binding enthalpy, ΔH. The dissociation constant (KD) and the binding free energy, ΔG was obtained from the fitted parameters using the following relations. All data analysis was performed using the Origin ITC software.
The ITC results are reported as mean±standard deviation from three independent experiments.

[3] = transition C′A (merged C′B and BA), F 6.1 pN, 5 mM Mg^2+, 1 uM G
[4] = transition DC (P3 folding), F 12.0 pN, 5 mM Mg^2+, 1 uM G
[5] = transition ED (P2 folding), F 13.5 pN, 5 mM Mg^2+, 1 uM G
[6] = transition BA (P1 folding), 3 mM Mg^2+, 200 nM G (rates at 8.5 pN)
[7] = transition BA (P1 folding), F 8.5 pN, 3 mM Mg^2+, 200 nM G
[8] = transition BA (P1 folding), F 8.5 pN, 3 mM Mg^2+, 200 nM G, no helix width adjustment
[9] = transition BA (P1 folding), from data at 8.5 pN, 3 mM Mg^2+, 200 nM G
[10] = transition C′B (L2-L3 folding), 3 mM Mg^2+, 200 nM G (rates at 8.5 pN)
[11] = transition C′B (L2-L3 folding), F 8.5 pN, 3 mM Mg^2+, 200 nM G
[12] = transition C′B (L2-L3 folding), from data at 8.5 pN, 3 mM Mg^2+, 200 nM G
[13] = transition DC (P3 folding), 3 mM Mg^2+, 200 nM G (rates at 13 pN)
[14] = transition DC (P3 folding), F 13 pN, 3 mM Mg^2+, 200 nM G
[15] = transition DC (P3 folding), from data at 13 pN, 3 mM Mg^2+, 200 nM G
[16] = transition ED (P2 folding), 3 mM Mg^2+, 200 nM G (rates at 13 pN)
[17] = transition ED (P2 folding), F 13 pN, 3 mM Mg^2+, 200 nM G
[18] = transition ED (P2 folding), from data at 13 pN, 3 mM Mg^2+, 200 nM G

B1: m1: m1 mutant guanine sensing aptamer RNA (SEQ ID NO: 2); G37 replaced with adenine in the L2 loop (nucleic acid)
chain: CACUCAUAUAAUCGCGUGGAUAUAGCACGCAAGUUUCUACCGGGCACCGUAAAUGUCCGACUAUGGGUG
modifications: RNA, backbone and methylation of C not given here
notes: G37 replaced with adenine in the L2 loop
Equilibrium force F^eq ([1]; transition C′A (merged C′B and BA), 5 mM Mg^2+, 1 uM G (rates at 6.1 pN)): 6 pN and 6.0 ± 0.03 pN | Folding rate kf [1, 3]: 0.6 ± 0.05 s⁻¹ | Transition distance ΔX [1, 3]: 12.4 ± 0.3 nm | Unfolding rate ku [1, 3]: 0.6 ± 0.05 s⁻¹ | ΔG (0) ([1]; transition C′A (merged C′B and BA), from data at 6.1 pN, 5 mM Mg^2+, 1 uM G): −12.4 ± 0.5 kBT | Equilibrium force F^eq ([1]; transition DC (P3 folding), 5 mM Mg^2+, 1 uM G (rates at 12.0 pN)): 12.2 ± 0.01 pN | Folding rate kf [1, 4]: 20.7 ± 0.4 s⁻¹ | Transition distance ΔX [1, 4]: 7.7 ± 0.3 nm | Unfolding rate ku [1, 4]: 15.2 ± 0.3 s⁻¹ | ΔG (0) ([1]; transition DC (P3 folding), from data at 12.0 pN, 5 mM Mg^2+, 1 uM G): −15.9 ± 0.9 kBT | Equilibrium force F^eq ([1]; transition ED (P2 folding), 5 mM Mg^2+, 1 uM G (rates at 13.5 pN)): 13.4 ± 0.01 pN | Folding rate kf [1, 5]: 11.8 ± 0.3 s⁻¹ | Transition distance ΔX [1, 5]: 7.2 ± 0.2 nm | Unfolding rate ku [1, 5]: 15.1 ± 0.3 s⁻¹ | ΔG (0) ([1]; transition ED (P2 folding), from data at 13.5 pN, 5 mM Mg^2+, 1 uM G): −16.6 ± 0.7 kBT | KD off relative to wild-type [2]: 35 fold | ΔG of guanine binding ([2]; 30° C.): -9.52 ± 0.22 kcal/mol

B2: m4: m4 mutant guanine sensing aptamer RNA (SEQ ID NO: 5); A59G/U67C in the P3 hairpin (nucleic acid)
chain: B1 chain with A24G, A46G, U54C
modifications: RNA, backbone and methylation of C not given here
notes: A59G/U67C in the P3 hairpin
L2-L3 kissing rate reduced versus wild-type ([1]; C′B folding rate): 4.5 fold | Barrier ΔGkiss^‡ prior to the L2-L3 interactions ([1]; free energy landscape transformed to zero force): ~8.4 kBT | Equilibrium force F^eq [1, 6]: 8.0 ± 0.1 pN | Folding rate kf [1, 7]: 0.33 ± 0.02 s⁻¹ | Unfolding rate ku [1, 7]: 1.0 ± 0.1 s⁻¹ | Transition distance ΔX [1, 8]: 9.5 ± 0.3 nm | ΔG (0) [1, 9]: −12.5 kBT and −12.5 ± 0.6 kBT | Equilibrium force F^eq [1, 10]: 7.6 ± 0.1 pN | Folding rate kf [1, 11]: 0.22 ± 0.02 s⁻¹ | Transition distance ΔX [1, 11]: 3.4 ± 0.1 nm | Unfolding rate ku [1, 11]: 0.56 ± 0.04 s⁻¹ | ΔG (0) [1, 12]: −6.1 ± 0.2 kBT | Increase of P3 stability ΔG(0) versus wild-type ([1]; transition DC): 1 kT | Equilibrium force F^eq [1, 13]: 13.0 ± 0.02 pN | Folding rate kf [1, 14]: 16.3 ± 0.3 s⁻¹ | Transition distance ΔX [1, 14]: 7.8 ± 0.2 nm | Unfolding rate ku [1, 14]: 16.5 ± 0.4 s⁻¹ | ΔG (0) [1, 15]: −17.3 ± 0.6 kBT | Equilibrium force F^eq [1, 16]: 13.9 ± 0.01 pN | Folding rate kf [1, 17]: 34.8 ± 1.1 s⁻¹ | Transition distance ΔX [1, 17]: 7.2 ± 0.2 nm | Unfolding rate ku [1, 17]: 8.8 ± 0.2 s⁻¹ | ΔG (0) [1, 18]: −17.6 ± 0.6 kBT | Kd ([2]; 30° C.): 3.59 ± 0.05 nM

B3: m6: m6 mutant guanine sensing aptamer RNA (SEQ ID NO: 7); U67A, shorter P3 hairpin and larger L3 loop (nucleic acid)
chain: B1 chain with A24G, U54A
modifications: RNA, backbone and methylation of C not given here
notes: U67A, shorter P3 hairpin and larger L3 loop
L2-L3 kissing faster than wild-type ([1]; C′B folding rate): 8.33 times | Equilibrium force F^eq [1, 6]: 8.3 ± 0.3 pN | Folding rate kf [1, 7]: 0.7 ± 0.02 s⁻¹ | Unfolding rate ku [1, 7]: 1.0 ± 0.1 s⁻¹ | Transition distance ΔX [1, 8]: 9.8 ± 0.2 nm | ΔG (0) [1, 9]: −13.9 ± 0.4 kBT | Equilibrium force F^eq [1, 10]: 7.2 ± 0.5 pN | Folding rate kf [1, 11]: 7.5 ± 0.2 s⁻¹ | Transition distance ΔX [1, 11]: 3.5 ± 0.2 nm | Unfolding rate ku [1, 11]: 23.9 ± 0.6 s⁻¹ | ΔG (0) [1, 12]: −6.1 ± 0.4 kBT | Equilibrium force F^eq [1, 13]: 10.6 ± 0.1 pN | Folding rate kf [1, 14]: 1.1 ± 0.03 s⁻¹ | Transition distance ΔX [1, 14]: 7.3 ± 0.1 nm | Unfolding rate ku [1, 14]: 115.4 ± 4.4 s⁻¹ | ΔG (0) [1, 15]: −11.1 kBT and −11.1 ± 0.3 kBT | Equilibrium force F^eq [1, 16]: 13.8 ± 0.03 pN | Folding rate kf [1, 17]: 23.9 ± 0.5 s⁻¹ | Transition distance ΔX [1, 17]: 7.1 ± 0.1 nm | Unfolding rate ku [1, 17]: 7.2 ± 0.2 s⁻¹ | ΔG (0) [1, 18]: −17.1 ± 0.3 kBT | Kd ([2]; 30° C.): 6.7 ± 0.63 nM
